Laboratory results from the supplement of paper PMC10065799, “High-throughput profiling of sequence recognition by tyrosine kinases and SH2 domains using bacterial peptide display” (eLife, 2023).

Experiments:
EPHB1 = EPHB1 (UniProt P54762); test: phosphorylation enrichment, bacterial display (enrichment ratio); higher = better substrate or ligand; peptides without Tyr show the background
Hck = Hck (UniProt P08631); test: as above
Fes = Fes (UniProt P07332); test: as above
FGFR3 = FGFR3 (UniProt P22607); test: as above
FGFR3, sequence (P22607 whole entry, looked up): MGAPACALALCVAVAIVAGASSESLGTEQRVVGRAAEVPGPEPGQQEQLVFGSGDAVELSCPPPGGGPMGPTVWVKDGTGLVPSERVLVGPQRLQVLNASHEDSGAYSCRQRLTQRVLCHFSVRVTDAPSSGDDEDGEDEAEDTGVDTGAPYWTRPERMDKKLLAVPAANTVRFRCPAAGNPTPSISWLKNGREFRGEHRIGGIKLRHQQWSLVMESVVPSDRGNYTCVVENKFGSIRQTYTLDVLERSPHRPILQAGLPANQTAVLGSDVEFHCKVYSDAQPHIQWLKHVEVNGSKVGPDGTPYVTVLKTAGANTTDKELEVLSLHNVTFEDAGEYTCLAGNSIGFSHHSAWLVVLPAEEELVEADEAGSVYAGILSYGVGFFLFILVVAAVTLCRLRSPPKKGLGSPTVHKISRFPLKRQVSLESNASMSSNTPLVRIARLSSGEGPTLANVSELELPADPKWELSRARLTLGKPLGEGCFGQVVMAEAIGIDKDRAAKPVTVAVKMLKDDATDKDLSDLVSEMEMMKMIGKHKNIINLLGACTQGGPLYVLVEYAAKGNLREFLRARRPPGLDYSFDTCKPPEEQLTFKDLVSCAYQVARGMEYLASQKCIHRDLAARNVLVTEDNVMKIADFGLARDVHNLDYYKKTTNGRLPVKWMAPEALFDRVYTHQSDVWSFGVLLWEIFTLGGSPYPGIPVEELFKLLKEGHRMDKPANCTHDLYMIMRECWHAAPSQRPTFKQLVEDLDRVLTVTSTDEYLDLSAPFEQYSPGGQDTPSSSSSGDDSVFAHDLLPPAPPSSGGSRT

Fer (mouse) = test: as above
EPHB2 = EPHB2 (UniProt P29323); test: as above
c-Abl (mouse) = test: as above
AncSZ = test: as above
MERTK = MERTK (UniProt Q12866); test: as above
MERTK, sequence (Q12866 whole entry, looked up): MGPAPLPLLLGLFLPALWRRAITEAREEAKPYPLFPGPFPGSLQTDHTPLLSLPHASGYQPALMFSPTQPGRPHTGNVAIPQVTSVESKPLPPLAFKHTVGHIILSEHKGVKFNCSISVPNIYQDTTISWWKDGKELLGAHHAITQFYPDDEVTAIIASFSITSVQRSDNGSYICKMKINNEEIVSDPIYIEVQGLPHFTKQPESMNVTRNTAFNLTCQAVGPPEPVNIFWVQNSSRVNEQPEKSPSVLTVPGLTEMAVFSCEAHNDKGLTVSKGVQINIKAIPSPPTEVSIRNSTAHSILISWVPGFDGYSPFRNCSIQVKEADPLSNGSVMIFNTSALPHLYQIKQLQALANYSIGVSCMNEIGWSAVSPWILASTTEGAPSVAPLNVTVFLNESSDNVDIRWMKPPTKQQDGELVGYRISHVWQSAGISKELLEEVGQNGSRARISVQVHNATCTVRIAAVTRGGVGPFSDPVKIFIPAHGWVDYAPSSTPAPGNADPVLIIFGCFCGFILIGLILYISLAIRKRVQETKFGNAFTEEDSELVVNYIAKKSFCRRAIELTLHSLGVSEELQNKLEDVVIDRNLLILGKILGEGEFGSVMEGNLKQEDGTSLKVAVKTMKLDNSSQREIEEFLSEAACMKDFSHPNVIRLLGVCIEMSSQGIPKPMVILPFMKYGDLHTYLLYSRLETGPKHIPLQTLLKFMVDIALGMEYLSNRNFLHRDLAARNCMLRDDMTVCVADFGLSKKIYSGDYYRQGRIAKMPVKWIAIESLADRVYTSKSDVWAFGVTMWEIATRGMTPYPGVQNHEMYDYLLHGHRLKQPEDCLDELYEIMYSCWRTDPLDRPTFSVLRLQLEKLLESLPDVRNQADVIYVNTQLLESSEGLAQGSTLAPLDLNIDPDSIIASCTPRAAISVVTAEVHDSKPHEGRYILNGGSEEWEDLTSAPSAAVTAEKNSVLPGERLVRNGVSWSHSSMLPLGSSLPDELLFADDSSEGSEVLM

Jak2 = Jak2 (UniProt O60674); test: as above
Jak2, sequence (O60674 whole entry, looked up): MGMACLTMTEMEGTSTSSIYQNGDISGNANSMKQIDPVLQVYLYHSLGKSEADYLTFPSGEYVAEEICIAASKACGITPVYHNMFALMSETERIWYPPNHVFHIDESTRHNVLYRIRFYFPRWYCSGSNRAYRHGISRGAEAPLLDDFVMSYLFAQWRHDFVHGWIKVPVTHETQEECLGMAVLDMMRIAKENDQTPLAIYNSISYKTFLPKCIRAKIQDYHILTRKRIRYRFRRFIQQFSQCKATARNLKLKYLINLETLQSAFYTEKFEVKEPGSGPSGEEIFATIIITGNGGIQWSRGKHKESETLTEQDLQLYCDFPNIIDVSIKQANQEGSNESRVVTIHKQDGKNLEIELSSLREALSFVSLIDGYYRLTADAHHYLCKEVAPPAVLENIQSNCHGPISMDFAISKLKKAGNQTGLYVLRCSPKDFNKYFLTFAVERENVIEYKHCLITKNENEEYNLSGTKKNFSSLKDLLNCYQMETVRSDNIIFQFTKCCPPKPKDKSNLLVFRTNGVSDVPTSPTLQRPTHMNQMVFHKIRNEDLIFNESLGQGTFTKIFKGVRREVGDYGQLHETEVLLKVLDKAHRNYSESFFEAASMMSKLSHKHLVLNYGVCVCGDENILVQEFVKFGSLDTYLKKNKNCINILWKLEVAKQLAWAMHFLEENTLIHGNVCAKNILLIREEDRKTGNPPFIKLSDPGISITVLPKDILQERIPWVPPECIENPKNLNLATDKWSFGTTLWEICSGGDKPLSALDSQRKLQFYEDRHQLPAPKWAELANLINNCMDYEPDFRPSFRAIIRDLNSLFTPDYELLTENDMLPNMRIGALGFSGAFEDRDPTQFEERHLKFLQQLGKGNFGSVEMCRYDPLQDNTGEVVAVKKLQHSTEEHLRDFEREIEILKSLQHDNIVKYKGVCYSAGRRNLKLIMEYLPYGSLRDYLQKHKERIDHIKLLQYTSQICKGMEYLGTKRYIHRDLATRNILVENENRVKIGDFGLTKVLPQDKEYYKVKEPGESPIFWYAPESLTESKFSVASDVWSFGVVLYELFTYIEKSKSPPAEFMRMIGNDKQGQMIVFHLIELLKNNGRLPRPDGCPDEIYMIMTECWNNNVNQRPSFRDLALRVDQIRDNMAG

FGFR1 = FGFR1 (UniProt P11362); test: as above
c-Src = test: as above
Fyn = Fyn (UniProt P06241); test: as above
Fyn, sequence (P06241 whole entry, looked up): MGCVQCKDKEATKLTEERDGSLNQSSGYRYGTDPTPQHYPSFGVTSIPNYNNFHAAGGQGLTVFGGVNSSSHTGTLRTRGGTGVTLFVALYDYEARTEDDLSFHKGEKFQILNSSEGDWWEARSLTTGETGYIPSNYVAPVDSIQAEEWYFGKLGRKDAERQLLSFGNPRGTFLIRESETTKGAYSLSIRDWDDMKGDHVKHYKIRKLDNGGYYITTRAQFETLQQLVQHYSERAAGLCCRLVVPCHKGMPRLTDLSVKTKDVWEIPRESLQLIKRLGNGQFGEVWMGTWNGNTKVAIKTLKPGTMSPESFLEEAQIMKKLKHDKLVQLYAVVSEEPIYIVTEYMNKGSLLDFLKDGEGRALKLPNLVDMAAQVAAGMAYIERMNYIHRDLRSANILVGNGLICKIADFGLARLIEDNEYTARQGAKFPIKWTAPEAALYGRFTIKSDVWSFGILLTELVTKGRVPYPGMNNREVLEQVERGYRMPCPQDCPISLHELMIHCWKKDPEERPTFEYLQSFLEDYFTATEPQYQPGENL

SHP2-C SH2 = test: SH2 binding enrichment of the phosphorylated peptide, bacterial display (enrichment ratio); higher = better substrate or ligand; peptides without Tyr show the background
c-Src SH2 = test: as above
Grb2 SH2 = Grb2 SH2 (UniProt P62993); test: as above
Grb2 SH2, sequence (P62993 whole entry, looked up, the tested form may be a part): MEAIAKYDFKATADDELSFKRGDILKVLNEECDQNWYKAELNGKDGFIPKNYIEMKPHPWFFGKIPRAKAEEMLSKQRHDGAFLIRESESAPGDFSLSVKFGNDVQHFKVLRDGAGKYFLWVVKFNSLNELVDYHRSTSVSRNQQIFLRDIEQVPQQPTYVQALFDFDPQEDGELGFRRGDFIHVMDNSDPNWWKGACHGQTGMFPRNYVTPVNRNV
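For SH2 binding enrichment of the phosphorylated peptide, bacterial display in this document: peptide library displayed on the E. coli surface as eCPX fusions, selected cells deep-sequenced, score is each peptide's frequency after selection divided by its frequency in the input.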
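For phosphorylation enrichment, bacterial display in this document: 11-residue human phosphosite peptides and single-mutation variants displayed on the E. coli surface, counted by deep sequencing, each peptide's frequency after selection divided by its frequency in the unselected input library; frequency after pTyr selection over input frequency; kinase dosed for 20-30% of maximal phosphorylation in three min.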

Hck, sequence (P08631 whole entry, looked up): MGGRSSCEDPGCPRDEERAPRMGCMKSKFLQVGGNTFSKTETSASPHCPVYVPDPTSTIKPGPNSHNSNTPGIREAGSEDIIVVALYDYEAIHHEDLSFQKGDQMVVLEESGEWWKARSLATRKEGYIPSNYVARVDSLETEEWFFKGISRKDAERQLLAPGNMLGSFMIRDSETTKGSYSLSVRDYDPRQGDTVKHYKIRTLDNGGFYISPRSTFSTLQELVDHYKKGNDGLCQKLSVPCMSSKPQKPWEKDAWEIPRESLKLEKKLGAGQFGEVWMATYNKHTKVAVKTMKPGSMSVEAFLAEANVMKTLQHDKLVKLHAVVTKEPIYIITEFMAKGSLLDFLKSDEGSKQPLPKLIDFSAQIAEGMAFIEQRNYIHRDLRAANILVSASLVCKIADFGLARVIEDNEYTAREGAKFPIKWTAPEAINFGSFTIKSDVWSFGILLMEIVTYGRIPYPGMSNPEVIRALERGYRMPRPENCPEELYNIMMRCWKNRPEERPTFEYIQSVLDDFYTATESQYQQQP
Fes, sequence (P07332 whole entry, looked up): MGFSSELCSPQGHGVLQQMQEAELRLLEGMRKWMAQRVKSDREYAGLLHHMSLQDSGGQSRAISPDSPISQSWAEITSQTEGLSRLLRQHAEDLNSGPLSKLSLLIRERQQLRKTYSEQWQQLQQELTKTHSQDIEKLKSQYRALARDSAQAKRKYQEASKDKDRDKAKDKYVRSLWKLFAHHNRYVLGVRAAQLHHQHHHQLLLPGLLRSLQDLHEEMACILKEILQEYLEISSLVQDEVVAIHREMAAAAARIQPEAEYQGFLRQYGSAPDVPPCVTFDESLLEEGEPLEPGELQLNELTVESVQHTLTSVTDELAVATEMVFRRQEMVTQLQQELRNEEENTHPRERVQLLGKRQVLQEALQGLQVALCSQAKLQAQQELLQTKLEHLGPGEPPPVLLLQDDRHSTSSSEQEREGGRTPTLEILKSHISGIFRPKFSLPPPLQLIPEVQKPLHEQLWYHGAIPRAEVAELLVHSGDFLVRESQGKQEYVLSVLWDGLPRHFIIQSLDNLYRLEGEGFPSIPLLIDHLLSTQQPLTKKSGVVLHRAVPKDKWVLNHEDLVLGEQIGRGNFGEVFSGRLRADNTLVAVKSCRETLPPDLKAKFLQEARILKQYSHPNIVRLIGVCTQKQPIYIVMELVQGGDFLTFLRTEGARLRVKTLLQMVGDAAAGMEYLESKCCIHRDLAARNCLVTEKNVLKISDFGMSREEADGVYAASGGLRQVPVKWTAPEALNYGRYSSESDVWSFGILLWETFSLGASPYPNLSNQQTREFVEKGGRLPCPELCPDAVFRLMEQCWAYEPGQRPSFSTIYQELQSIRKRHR

| Sequence | phosphorylation enrichment (EPHB1) | phosphorylation enrichment (Hck) | phosphorylation enrichment (Fes) | phosphorylation enrichment (FGFR3) | phosphorylation enrichment (Fer (mouse)) | phosphorylation enrichment (EPHB2) | phosphorylation enrichment (c-Abl (mouse)) | phosphorylation enrichment (AncSZ) | phosphorylation enrichment (MERTK) | phosphorylation enrichment (Jak2) | phosphorylation enrichment (FGFR1) | phosphorylation enrichment (c-Src) | phosphorylation enrichment (Fyn) | SH2 binding enrichment (SHP2-C SH2) | SH2 binding enrichment (c-Src SH2) | SH2 binding enrichment (Grb2 SH2) |
| --- | --- | --- | --- | --- | --- | --- | --- | --- | --- | --- | --- | --- | --- | --- | --- | --- |
| MIRSAYALRGL [CPS1_Y590_G593R] | 0.434 | 0.491 | 0.628 | 0.527 | 0.409 | 0.448 | 0.502 | 0.669 | 0.423 | 0.543 | 0.474 | 0.474 | 0.39 | 0.6 | 0.408 | 0.731 |
| MKGDFYCFLAE [YWHAG_Y131_R132C_YF] | 1.18 | 0.695 | 1.58 | 1.5 | 0.644 | 0.88 | 0.971 | 1.32 | 2.81 | 1.29 | 1.02 | 0.592 | 0.456 | 0.742 | 0.54 | 0.725 |
| MKGDYYCYLAE [YWHAG_Y131_R132C] | 5.59 | 1.48 | 1.5 | 9.01 | 1.07 | 5.89 | 1.85 | 3 | 5.47 | 5.78 | 11.4 | 2.49 | 2.16 | 0.779 | 1.36 | 0.789 |
| MPLTKYLKRIK [CNGB3_Y200_E199K] | 0.425 | 0.534 | 0.623 | 0.488 | 0.425 | 0.377 | 0.498 | 0.641 | 0.431 | 0.477 | 0.472 | 0.391 | 0.377 | 1.03 | 0.834 | 1.27 |
| MPVDGYISGLL [PAK6_Y81] | 0.447 | 0.441 | 0.953 | 0.626 | 0.522 | 0.59 | 0.622 | 0.716 | 0.41 | 0.817 | 0.583 | 0.487 | 0.524 | 0.661 | 0.511 | 0.903 |
| MRTMGYMPTEM [CABP5_Y62] | 0.428 | 0.456 | 0.732 | 0.538 | 0.459 | 0.509 | 0.447 | 0.683 | 0.344 | 0.507 | 0.63 | 0.355 | 0.388 | 1.08 | 0.407 | 0.789 |
| MSNVPYVMNRG [ACAT1_Y161] | 0.368 | 0.399 | 0.619 | 0.594 | 0.377 | 0.421 | 0.527 | 0.734 | 0.474 | 0.572 | 0.464 | 0.478 | 0.426 | 0.657 | 0.399 | 0.919 |
| MSRNLYSGDFF [DDR2_Y736_YF] | 7.35 | 5.38 | 0.98 | 2.16 | 1.57 | 10 | 0.797 | 0.825 | 9.92 | 0.655 | 2.41 | 4.14 | 5.54 | 0.611 | 0.773 | 0.83 |
| MTYVFYRENLR [NLRP14_Y443] | 1.03 | 1.03 | 1.4 | 0.967 | 0.521 | 0.741 | 0.791 | 1.64 | 0.514 | 1.48 | 0.653 | 1.36 | 0.823 | 1.22 | 0.72 | 1.24 |
| NAGDFYDLFGG [PTPN11_Y63_T59A_YF] | 0.651 | 3.55 | 1.16 | 0.769 | 2.43 | 0.564 | 0.762 | 1.11 | 2.72 | 0.971 | 0.455 | 6.02 | 5.68 | 0.635 | 0.497 | 0.642 |
| NAMRRYIEEFQ [MNS1_Y244] | 0.352 | 0.413 | 0.819 | 0.501 | 0.417 | 0.459 | 0.541 | 0.734 | 0.346 | 0.516 | 0.458 | 0.347 | 0.371 | 0.585 | 0.452 | 0.847 |
| NCLRQYVAGRF [CRB1_Y711_E710Q] | 0.39 | 0.337 | 0.646 | 0.467 | 0.367 | 0.492 | 0.576 | 0.993 | 0.456 | 0.62 | 0.382 | 0.444 | 0.477 | 0.571 | 0.299 | 0.709 |
| NDDDVYLSLEE [VAV2_Y142_R143L] | 0.793 | 0.721 | 1.48 | 0.984 | 0.656 | 0.627 | 1.05 | 1.49 | 0.507 | 1.54 | 0.725 | 0.804 | 0.706 | 0.616 | 0.477 | 0.834 |
| NDPMEYAKQHG [ASS1_Y163_L160P] | 0.419 | 0.467 | 0.876 | 0.527 | 0.426 | 0.485 | 0.718 | 0.769 | 0.465 | 0.86 | 0.415 | 0.396 | 0.389 | 0.545 | 0.457 | 0.804 |
| NETNKYQISVN [FGB_Y368_A365T] | 0.427 | 0.412 | 0.709 | 0.575 | 0.375 | 0.46 | 0.57 | 0.653 | 0.418 | 0.684 | 0.411 | 0.329 | 0.415 | 0.581 | 0.432 | 0.889 |
| NFFEFYVDDPL [GCHFR_Y48_P53L_YF] | 0.773 | 0.439 | 1.11 | 0.874 | 0.428 | 0.52 | 0.78 | 1.09 | 0.413 | 1.07 | 0.501 | 0.489 | 0.436 | 0.585 | 0.485 | 0.686 |
